For one protein, kcat results are on record in paper PMC4954055, “A Self‐Assembled Respiratory Chain that Catalyzes NADH Oxidation by Ubiquinone‐10 Cycling between Complex I and the Alternative Oxidase” (Angewandte Chemie (International Ed. in English), 2015).

Substrate in this data set: COC1=C(OC)C(=O)C(C/C=C(\C)CC/C=C(\C)CC/C=C(\C)CC/C=C(\C)CC/C=C(\C)CC/C=C(\C)CC/C=C(\C)CC/C=C(\C)CC/C=C(\C)CCC=C(C)C)=C(C)C1=O
In words: NADH:O2 oxidoreduction in Q10 proteoliposomes, Michaelis-Menten fit. The conditions noted are these: 200 μM NADH, 15 μg/mL alamethicin, 10 mM Tris-SO4 pH 7.5, 50 mM KCl, 32 °C, excess AOX reoxidizes Q10H2, membrane-phase concentration, stated as approximately 3.9 mM Q10 in the membrane phase. Type of data set: biochemical, Bos taurus.

B1: complex I (NADH:ubiquinone oxidoreductase, CI) (Bos taurus) (protein)
chain 1: ARQWQPDVEWAEQYGGAVMYPTKETAHWKPPPWNDVDPPKDTLVSNLTLNFGPQHPAAHGVLRLVMELSGEMVRKCDPHIGLLHRGTEKLIEYKTYLQALPYFDRLDYVSMMCNEQAYSLAVEKLLNIQPPPRAQWIRVLFGEITRLLNHIMAVTTHALDIGAMTPFFWMFEEREKMFEFYERVSGARMHAAYVRPGGVHQDLPLGLMDDIYEFSKNFSLRIDELEEMLTNNRIWRNRTVDIGIVTAEDALNYGFSGVMLRGSGIQWDLRKTQPYDVYDQVEFDVPIGSRGDCYDRYLCRVEEMRQSIRIISQCLNKMPPGEIKVDDAKVSPPKRAEMKTSMESLIHHFKLYTEGYQVPPGATYTAIEAPKGEFGVYLVSDGSSRPYRCKIKAPGFAHLAGLDKMSKGHMLADVVAIIGTQDIVFGEVDR
chain 2: not shown
chain 3: not shown
notes: native complex purified from heart mitochondria, detergent-solubilized, reconstituted into proteoliposomes with Q10 and AOX; with NADH dehydrogenase [ubiquinone] flavoprotein 1, mitochondrial; NADH dehydrogenase [ubiquinone] flavoprotein 2, mitochondrial; NADH-ubiquinone oxidoreductase 75 kDa subunit, mitochondrial; NADH dehydrogenase [ubiquinone] iron-sulfur protein 3, mitochondrial; NADH …
A word on the kcat: it is the number of substrate molecules converted per active site and unit of time at saturation. As for B1, the kcat is 500 s⁻¹.
